Source: patent publication US6761878B2, “Pathological tissue detection and treatment employing targeted benzoindole optical agents” (Mallinckrodt, Inc., priority 2001, dated 2004)

Assays:
[1] = tested on: CA20948 rat tissues and organs; assay: Fluorescence imaging of ex-vivo tissues and organs from CA20948 tumor bearing rat; type: in vivo; conditions: 27 hours post administration (FIG. 5)
Description: Individual organs were removed from the CA20948 rat which was injected with cytate 1 and were imaged.

[2] = tested on: Dunning R3327-H (prostate) tumor; assay: In vivo fluorescence imaging of Dunning R3327-H tumor bearing rats; parameters: species or system male Lewis rats; conditions: images at 2 and 30 minutes post administration, 0.5 ml of 0.42 mg/ml i.v.
Text: (§1) A non-invasive in vivo fluorescence imaging apparatus was employed to assess the efficacy of indocyanine green (ICG) in three different rat tumor cell lines of the inventive contrast agents developed for tumor detection in animal models. A LaserMax Inc. laser diode of nominal wavelength 780 nm and nominal power of 40 mW was used. The detector was a Princeton Instruments model RTE/CCD-1317-K/2 CCD camera with a Rodenstock 10 mm F2 lens (stock #542.032.002.20) attached. An 830 nm […] (CVI Laser Corp., part #F10-830-4-2) was mounted in front of the CCD input lens, such that only emitted fluorescent light from the contrast agent was imaged.
(§2) Three tumor cell lines, DSL 6/A (pancreatic), Dunning R3327-H (prostate), and CA20948 (pancreatic), which are rich in somatostatin (SST-2) receptors were induced into male Lewis rats by solid implant technique in the left flank area (Achilefu et al., Invest. Radiology, 2000, pp. 479-485). Palpable masses were detected nine days post implant.
(§3) The animals were anesthetized with xylazine:ketamine:acepromazine (1.5:1.5:0.5^v/v) at 0.8 ml/kg via intramuscular injection. The left flank was shaved to expose the tumor and surrounding surface area. A 21-gauge butterfly needle equipped with a stopcock connected to two syringes containing heparinized saline was placed into the tail vein of the rat. […]

[3] = tested on: DSL 6/A (pancreatic) tumor; assay: In vivo fluorescence imaging of DSL 6/A tumor bearing rats; parameters: species or system male Lewis rats; conditions: images at 2 and 30 minutes post administration, 0.5 ml of 0.42 mg/ml i.v.
Text: as §1, §2, §3

[4] = tested on: CA20948 (pancreatic) tumor, rich in somatostatin (SST-2) receptors; assay: In vivo fluorescence imaging of CA20948 tumor bearing rats; parameters: species or system male Lewis rats
Text: as §1, §2, §3

Row | SMILES | uptake of the conjugate in adrenal glands ([1]; ex vivo organ) | uptake of the conjugate in heart ([1]; ex vivo organ) | uptake of the conjugate in liver ([1]; ex vivo organ) | uptake of the conjugate in pancreas ([1]; ex vivo organ) | uptake of the conjugate in spleen ([1]; ex vivo organ) | uptake of the conjugate in muscle ([1]; ex vivo tissue) | uptake of the conjugate in tumor tissue ([1]; ex vivo tissue) | perfusion of the agent into the tumor [2] | perfusion of the agent into the tumor [3] | non-specific localization into the tumor line ([4]; compared to the other two lines) | perfusion of the agent into the tumor ([4]; images at 2 and 30 minutes post administration, 0.5 ml of 0.42 mg/ml i.v.)
1 | C[C@@H](O)[C@H](NC(=O)[C@@H]1CSSC[C@H](NC(=O)[C@@H](Cc2ccccc2)NC(=O)CC[N+]2=C(/C=C/C=C/C=C/C=C3/N(CCC(=O)O)c4ccc5ccccc5c4C3(C)C)C(C)(C)c3c2ccc2ccccc32)C(=O)N[C@@H](Cc2ccc(O)cc2)C(=O)N[C@H](Cc2c[nH]c3ccccc23)C(=O)N[C@@H](CCCCN)C(=O)N[C@@H]([C@@H](C)O)C(=O)N1)C(=O)O [Cytate 1, monooctreotate-bisethylcarboxymethylindocyanine dye] | High uptake | Significant lower uptake | Significant lower uptake | High uptake | Significant lower uptake | Significant lower uptake | High uptake | – | – | – | –
2 | CC1(C)C(/C=C/C=C/C=C/C=C2\N(CCCCS(=O)(=O)O)c3ccc4ccccc4c3C2(C)C)=[N+](CCCCS(=O)(=O)[O-])c2ccc3ccccc3c21 [ICG, indocyanine green] | – | – | – | – | – | – | – | slow perfusion of the agent into the tumor over time | slow perfusion of the agent into the tumor over time | no non-specific localization | only a slight and transient perfusion that was cleared after only 30 minutes post injection
